In patent publication US20230088052A1 one finds EC50, IC50 and Kd data, which are given here for one substance.

pKd: −log10 of the molar value. Like-named read-outs stand apart in the source and are kept apart here.

For experiment [1], the target named is his-tagged human IL-4R recombinant protein (h-IL-4R-his) (human) (UniProt P24394). The experiment can be described thus: binding ELISA, human IL-4R-his coated.
Experiment [2] concerns the target humanized Fc-tagged human IL-4R recombinant protein (h-IL-4R-Fc) (human) (UniProt P24394). The experiment can be described thus: blocking ELISA: human IL-4R-Fc coated, antibody blocks the binding of IL-4. A general note: ELISA stands for enzyme-linked immunosorbent assay.
Experiment [3] has the same target. The experiment can be described thus: blocking ELISA of human IL-4/IL-4R.
Experiment [4] has as its target his-tagged human IL-4R recombinant protein (h-IL-4R-his) (human) (UniProt P24394). The experiment can be described thus: Biacore SPR: antibody captured, IL-4R antigen in flow, 1:1 model.
Experiment [5] has the same target. The experiment can be described thus: binding ELISA, human IL-4R-his coated. The source holds these as a separate data set.
The target is the same in experiment [6]. Nature of the experiment: binding ELISA, human IL-4R-his coated. The source holds these as a separate data set.
For experiment [7], the target named is humanized Fc-tagged human IL-4R recombinant protein (h-IL-4R-Fc) (human) (UniProt P24394). Nature of the experiment: blocking ELISA: human IL-4R-Fc coated, antibody blocks the binding of IL-4. This is another data set of the same source.

Sequence of Dupilumab (antibody) (VH): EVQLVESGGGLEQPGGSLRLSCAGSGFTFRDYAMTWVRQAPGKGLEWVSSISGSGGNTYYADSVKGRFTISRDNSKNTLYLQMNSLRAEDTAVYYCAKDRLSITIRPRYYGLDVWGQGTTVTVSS
Sequence of Dupilumab (antibody) (VL): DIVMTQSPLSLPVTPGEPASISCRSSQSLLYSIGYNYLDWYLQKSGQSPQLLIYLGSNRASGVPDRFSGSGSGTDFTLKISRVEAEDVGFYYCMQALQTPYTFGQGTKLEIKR

For orientation: EC50 means the concentration that produces a half-maximal response. As usually defined, the IC50 is the concentration at which inhibition is half-maximal. The pKd is the Kd on a negative log10 scale, so that one unit is a factor of ten. On to Dupilumab (antibody), for which the EC50 in experiment [1] amounted to 0.0276 µg/mL; in experiment [5] it was 0.0426 µg/mL; in experiment [6] it was 0.0558 µg/mL. The figures for the IC50 in experiment [2], in experiment [3] and in experiment [7] were 0.209 µg/mL, 0.156 µg/mL and 0.0521 µg/mL, respectively. For the same substance, in experiment [4], the pKd is 9.90.
